Molecular target: GST-Hmt1p (S. cerevisiae) (UniProt P38074)
Sequence (P38074 whole entry): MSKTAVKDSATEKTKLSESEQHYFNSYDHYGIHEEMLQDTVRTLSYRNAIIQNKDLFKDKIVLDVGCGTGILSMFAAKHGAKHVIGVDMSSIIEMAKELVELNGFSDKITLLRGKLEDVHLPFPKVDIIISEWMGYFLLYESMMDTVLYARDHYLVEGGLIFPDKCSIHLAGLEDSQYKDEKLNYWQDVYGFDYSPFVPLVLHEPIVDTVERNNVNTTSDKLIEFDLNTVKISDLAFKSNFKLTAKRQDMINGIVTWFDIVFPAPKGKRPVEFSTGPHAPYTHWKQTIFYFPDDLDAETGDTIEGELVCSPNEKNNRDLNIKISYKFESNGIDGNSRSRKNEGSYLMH

## synthetic histone H4 peptide (residues 1-18) with acetyllysine at position 8 (from UniProt P02309 2-19)
  KM of Hmt1p-catalysed methylation of the H4 peptide (3H-SAM, Hanes/Wolffe plot): 0.059 µM
